*1 amine or outer side, *2 acyl side, *3 side chain or, on linkers, in order; H or OH if unused. Side-chain parts run from the residue outwards. The star is where a group is joined. C18 diacid = O=C(O)CCCCCCCCCCCCCCCCC(=O)*; γGlu = O=C(O)[C@H](CCC(=O)[*:2])N[*:1]; Isovaleryl = CC(C)CC(=O)*; AEEA = NCCOCCOCC(=O)O
T1: human neuropeptide Y2 receptor (human, UniProt P49146 1-381)
T1 construct: whole, on cells; also called hNPY2 receptor; hNPY2-R
T1 sequence (looked up): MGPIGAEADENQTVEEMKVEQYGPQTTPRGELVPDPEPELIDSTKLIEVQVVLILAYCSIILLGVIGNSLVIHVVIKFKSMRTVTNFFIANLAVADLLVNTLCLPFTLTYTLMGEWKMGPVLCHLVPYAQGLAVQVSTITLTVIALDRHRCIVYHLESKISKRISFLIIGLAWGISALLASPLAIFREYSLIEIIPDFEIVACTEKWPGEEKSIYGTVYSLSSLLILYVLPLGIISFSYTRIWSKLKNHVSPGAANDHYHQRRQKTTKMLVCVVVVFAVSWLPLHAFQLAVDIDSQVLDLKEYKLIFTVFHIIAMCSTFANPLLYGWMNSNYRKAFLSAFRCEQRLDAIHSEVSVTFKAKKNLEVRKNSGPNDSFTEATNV

B1: Compound 55 (peptide)
peptide: Isovaleryl-APEK([AEEA-AEEA-γGlu-C18 diacid])PEEDASPEEAQRYYVSLRHYYNWLTRQRY-NH2
SMILES: CC(C)CC(=O)N[C@@H](C)C(=O)N1CCC[C@H]1C(=O)N[C@@H](CCC(=O)O)C(=O)N[C@@H](CCCCNC(=O)COCCOCCNC(=O)COCCOCCNC(=O)CC[C@H](NC(=O)CCCCCCCCCCCCCCCCC(=O)O)C(=O)O)C(=O)N1CCC[C@H]1C(=O)N[C@@H](CCC(=O)O)C(=O)N[C@@H](CCC(=O)O)C(=O)N[C@@H](CC(=O)O)C(=O)N[C@@H](C)C(=O)N[C@@H](CO)C(=O)N1CCC[C@H]1C(=O)N[C@@H](CCC(=O)O)C(=O)N[C@@H](CCC(=O)O)C(=O)N[C@@H](C)C(=O)N[C@@H](CCC(N)=O)C(=O)N[C@@H](CCCNC(=N)N)C(=O)N[C@@H](Cc1ccc(O)cc1)C(=O)N[C@@H](Cc1ccc(O)cc1)C(=O)N[C@H](C(=O)N[C@@H](CO)C(=O)N[C@@H](CC(C)C)C(=O)N[C@@H](CCCNC(=N)N)C(=O)N[C@@H](Cc1c[nH]cn1)C(=O)N[C@@H](Cc1ccc(O)cc1)C(=O)N[C@@H](Cc1ccc(O)cc1)C(=O)N[C@@H](CC(N)=O)C(=O)N[C@@H](Cc1c[nH]c2ccccc12)C(=O)N[C@@H](CC(C)C)C(=O)N[C@H](C(=O)N[C@@H](CCCNC(=N)N)C(=O)N[C@@H](CCC(N)=O)C(=O)N[C@@H](CCCNC(=N)N)C(=O)N[C@@H](Cc1ccc(O)cc1)C(N)=O)[C@@H](C)O)C(C)C
B2: Compound 56 (peptide)
peptide: Isovaleryl-APEK([AEEA-AEEA-γGlu-C18 diacid])PEADAEPEELQRYYVSLRHYYNWLTRQRY-NH2
SMILES: CC(C)CC(=O)N[C@@H](C)C(=O)N1CCC[C@H]1C(=O)N[C@@H](CCC(=O)O)C(=O)N[C@@H](CCCCNC(=O)COCCOCCNC(=O)COCCOCCNC(=O)CC[C@H](NC(=O)CCCCCCCCCCCCCCCCC(=O)O)C(=O)O)C(=O)N1CCC[C@H]1C(=O)N[C@@H](CCC(=O)O)C(=O)N[C@@H](C)C(=O)N[C@@H](CC(=O)O)C(=O)N[C@@H](C)C(=O)N[C@@H](CCC(=O)O)C(=O)N1CCC[C@H]1C(=O)N[C@@H](CCC(=O)O)C(=O)N[C@@H](CCC(=O)O)C(=O)N[C@@H](CC(C)C)C(=O)N[C@@H](CCC(N)=O)C(=O)N[C@@H](CCCNC(=N)N)C(=O)N[C@@H](Cc1ccc(O)cc1)C(=O)N[C@@H](Cc1ccc(O)cc1)C(=O)N[C@H](C(=O)N[C@@H](CO)C(=O)N[C@@H](CC(C)C)C(=O)N[C@@H](CCCNC(=N)N)C(=O)N[C@@H](Cc1c[nH]cn1)C(=O)N[C@@H](Cc1ccc(O)cc1)C(=O)N[C@@H](Cc1ccc(O)cc1)C(=O)N[C@@H](CC(N)=O)C(=O)N[C@@H](Cc1c[nH]c2ccccc12)C(=O)N[C@@H](CC(C)C)C(=O)N[C@H](C(=O)N[C@@H](CCCNC(=N)N)C(=O)N[C@@H](CCC(N)=O)C(=O)N[C@@H](CCCNC(=N)N)C(=O)N[C@@H](Cc1ccc(O)cc1)C(N)=O)[C@@H](C)O)C(C)C
B3: Compound 60 (peptide)
peptide: Isovaleryl-APEK([AEEA-AEEA-γGlu-C18 diacid])PEEAASPEELEQYYVSLRHYYNWLTRQRY-NH2
SMILES: CC(C)CC(=O)N[C@@H](C)C(=O)N1CCC[C@H]1C(=O)N[C@@H](CCC(=O)O)C(=O)N[C@@H](CCCCNC(=O)COCCOCCNC(=O)COCCOCCNC(=O)CC[C@H](NC(=O)CCCCCCCCCCCCCCCCC(=O)O)C(=O)O)C(=O)N1CCC[C@H]1C(=O)N[C@@H](CCC(=O)O)C(=O)N[C@@H](CCC(=O)O)C(=O)N[C@@H](C)C(=O)N[C@@H](C)C(=O)N[C@@H](CO)C(=O)N1CCC[C@H]1C(=O)N[C@@H](CCC(=O)O)C(=O)N[C@@H](CCC(=O)O)C(=O)N[C@@H](CC(C)C)C(=O)N[C@@H](CCC(=O)O)C(=O)N[C@@H](CCC(N)=O)C(=O)N[C@@H](Cc1ccc(O)cc1)C(=O)N[C@@H](Cc1ccc(O)cc1)C(=O)N[C@H](C(=O)N[C@@H](CO)C(=O)N[C@@H](CC(C)C)C(=O)N[C@@H](CCCNC(=N)N)C(=O)N[C@@H](Cc1c[nH]cn1)C(=O)N[C@@H](Cc1ccc(O)cc1)C(=O)N[C@@H](Cc1ccc(O)cc1)C(=O)N[C@@H](CC(N)=O)C(=O)N[C@@H](Cc1c[nH]c2ccccc12)C(=O)N[C@@H](CC(C)C)C(=O)N[C@H](C(=O)N[C@@H](CCCNC(=N)N)C(=O)N[C@@H](CCC(N)=O)C(=O)N[C@@H](CCCNC(=N)N)C(=O)N[C@@H](Cc1ccc(O)cc1)C(N)=O)[C@@H](C)O)C(C)C
B4: Compound 61 (peptide)
peptide: Isovaleryl-APEK([AEEA-AEEA-γGlu-C18 diacid])PPEDASPEEIQRYYVSLRHYYNWLTRQRY-NH2
SMILES: CC[C@H](C)[C@H](NC(=O)[C@H](CCC(=O)O)NC(=O)[C@H](CCC(=O)O)NC(=O)[C@@H]1CCCN1C(=O)[C@H](CO)NC(=O)[C@H](C)NC(=O)[C@H](CC(=O)O)NC(=O)[C@H](CCC(=O)O)NC(=O)[C@@H]1CCCN1C(=O)[C@@H]1CCCN1C(=O)[C@H](CCCCNC(=O)COCCOCCNC(=O)COCCOCCNC(=O)CC[C@H](NC(=O)CCCCCCCCCCCCCCCCC(=O)O)C(=O)O)NC(=O)[C@H](CCC(=O)O)NC(=O)[C@@H]1CCCN1C(=O)[C@H](C)NC(=O)CC(C)C)C(=O)N[C@@H](CCC(N)=O)C(=O)N[C@@H](CCCNC(=N)N)C(=O)N[C@@H](Cc1ccc(O)cc1)C(=O)N[C@@H](Cc1ccc(O)cc1)C(=O)N[C@H](C(=O)N[C@@H](CO)C(=O)N[C@@H](CC(C)C)C(=O)N[C@@H](CCCNC(=N)N)C(=O)N[C@@H](Cc1c[nH]cn1)C(=O)N[C@@H](Cc1ccc(O)cc1)C(=O)N[C@@H](Cc1ccc(O)cc1)C(=O)N[C@@H](CC(N)=O)C(=O)N[C@@H](Cc1c[nH]c2ccccc12)C(=O)N[C@@H](CC(C)C)C(=O)N[C@H](C(=O)N[C@@H](CCCNC(=N)N)C(=O)N[C@@H](CCC(N)=O)C(=O)N[C@@H](CCCNC(=N)N)C(=O)N[C@@H](Cc1ccc(O)cc1)C(N)=O)[C@@H](C)O)C(C)C
B5: Compound 63 (peptide)
peptide: Isovaleryl-APEK([AEEA-AEEA-γGlu-C18 diacid])PEEDASPEELQRYYVSLRAYYNWLTRQRY-NH2
SMILES: CC(C)CC(=O)N[C@@H](C)C(=O)N1CCC[C@H]1C(=O)N[C@@H](CCC(=O)O)C(=O)N[C@@H](CCCCNC(=O)COCCOCCNC(=O)COCCOCCNC(=O)CC[C@H](NC(=O)CCCCCCCCCCCCCCCCC(=O)O)C(=O)O)C(=O)N1CCC[C@H]1C(=O)N[C@@H](CCC(=O)O)C(=O)N[C@@H](CCC(=O)O)C(=O)N[C@@H](CC(=O)O)C(=O)N[C@@H](C)C(=O)N[C@@H](CO)C(=O)N1CCC[C@H]1C(=O)N[C@@H](CCC(=O)O)C(=O)N[C@@H](CCC(=O)O)C(=O)N[C@@H](CC(C)C)C(=O)N[C@@H](CCC(N)=O)C(=O)N[C@@H](CCCNC(=N)N)C(=O)N[C@@H](Cc1ccc(O)cc1)C(=O)N[C@@H](Cc1ccc(O)cc1)C(=O)N[C@H](C(=O)N[C@@H](CO)C(=O)N[C@@H](CC(C)C)C(=O)N[C@@H](CCCNC(=N)N)C(=O)N[C@@H](C)C(=O)N[C@@H](Cc1ccc(O)cc1)C(=O)N[C@@H](Cc1ccc(O)cc1)C(=O)N[C@@H](CC(N)=O)C(=O)N[C@@H](Cc1c[nH]c2ccccc12)C(=O)N[C@@H](CC(C)C)C(=O)N[C@H](C(=O)N[C@@H](CCCNC(=N)N)C(=O)N[C@@H](CCC(N)=O)C(=O)N[C@@H](CCCNC(=N)N)C(=O)N[C@@H](Cc1ccc(O)cc1)C(N)=O)[C@@H](C)O)C(C)C
B6: Compound 65 (peptide)
peptide: Isovaleryl-APEK([AEEA-AEEA-γGlu-C18 diacid])PEEDASPEELQRYYVEIRHYYNWLTRQRY-NH2
SMILES: CC[C@H](C)[C@H](NC(=O)[C@H](CCC(=O)O)NC(=O)[C@@H](NC(=O)[C@H](Cc1ccc(O)cc1)NC(=O)[C@H](Cc1ccc(O)cc1)NC(=O)[C@H](CCCNC(=N)N)NC(=O)[C@H](CCC(N)=O)NC(=O)[C@H](CC(C)C)NC(=O)[C@H](CCC(=O)O)NC(=O)[C@H](CCC(=O)O)NC(=O)[C@@H]1CCCN1C(=O)[C@H](CO)NC(=O)[C@H](C)NC(=O)[C@H](CC(=O)O)NC(=O)[C@H](CCC(=O)O)NC(=O)[C@H](CCC(=O)O)NC(=O)[C@@H]1CCCN1C(=O)[C@H](CCCCNC(=O)COCCOCCNC(=O)COCCOCCNC(=O)CC[C@H](NC(=O)CCCCCCCCCCCCCCCCC(=O)O)C(=O)O)NC(=O)[C@H](CCC(=O)O)NC(=O)[C@@H]1CCCN1C(=O)[C@H](C)NC(=O)CC(C)C)C(C)C)C(=O)N[C@@H](CCCNC(=N)N)C(=O)N[C@@H](Cc1c[nH]cn1)C(=O)N[C@@H](Cc1ccc(O)cc1)C(=O)N[C@@H](Cc1ccc(O)cc1)C(=O)N[C@@H](CC(N)=O)C(=O)N[C@@H](Cc1c[nH]c2ccccc12)C(=O)N[C@@H](CC(C)C)C(=O)N[C@H](C(=O)N[C@@H](CCCNC(=N)N)C(=O)N[C@@H](CCC(N)=O)C(=O)N[C@@H](CCCNC(=N)N)C(=O)N[C@@H](Cc1ccc(O)cc1)C(N)=O)[C@@H](C)O

biological target: T1, human neuropeptide Y2 receptor; assay: radioligand competition (125I-PYY(1-36)), hNPY2R membranes
In short: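 Commercial human Y2 receptor membranes (0.5 μg protein/well) were incubated with peptide for 2 h at room temperature in 50 mM HEPES, 5 mM MgCl₂, 1 mM CaCl₂, pH 7.4, with 0.2% ovalbumin. Bound radioligand was separated on PEI-soaked GF/C filters and counted by scintillation, and IC₅₀ came from nonlinear sigmoidal regression.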

Going from B1 to B2, the Ki falls from 3.35 nM to 1.26 nM (2.7-fold).

First: B3
Second: B4
The Ki of the first is 15-fold higher: 5.95 nM for the first, 0.4 nM for the second.

First: B5
Second: B6
The Ki of the first is 3.1-fold higher: 3.13 nM for the first, 1.02 nM for the second.
